Results from the supplement of paper PMC10567573.

B1: PPFIA4 (parent)
chain: YAGNLHESGVHGALLALDENFDHN

Variants of: B1
Assay: protein stability index of a GFP-peptide fusion (GPS, HEK-293T) (PSI 1-6); higher = more stable
Conditions: c terminus: a fixed tail appended
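Further: lentivirally expressed fusions sorted by FACS into six bins by GFP to DsRed ratio, PSI derived from sequencing read proportions per bin multiplied by bin number.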

With YAGNLHFSGVHGALLALDENFDHN as the variant, how does the protein stability index read?
Its protein stability index is 2.77.

Which protein stability index does the source give for YAGNLHTSGVHGALLALDENFDHN here?
The protein stability index was 2.24.

With YAGNLHKSGVHGALLALDENFDHN as the variant, how does the protein stability index read?
The protein stability index was 1.52.

With YAGNLHPSGVHGALLALDENFDHN as the variant, how does the protein stability index read?
The protein stability index was 1.95.

With YAGNLHDSGVHGALLALDENFDHN as the variant, how does the protein stability index read?
Its protein stability index is 3.14.

With YAGNLHRSGVHGALLALDENFDHN as the variant, how does the protein stability index read?
Its protein stability index is 1.44.

Which protein stability index does the source give for YAGNLHHSGVHGALLALDENFDHN here?
The protein stability index was 1.77.

Which protein stability index does the source give for YAGNLHASGVHGALLALDENFDHN here?
The protein stability index was 1.9.

For YAGNLHLSGVHGALLALDENFDHN, which protein stability index is on record?
Its protein stability index is 2.34.

Which protein stability index does the source give for YAGNLHGSGVHGALLALDENFDHN here?
Its protein stability index is 2.

Which protein stability index does the source give for YAGNLHMSGVHGALLALDENFDHN here?
The protein stability index was 2.02.

For YAGNLHCSGVHGALLALDENFDHN, which protein stability index is on record?
The protein stability index was 1.67.

Which protein stability index does the source give for YAGNLHYSGVHGALLALDENFDHN here?
The protein stability index was 1.85.

Which protein stability index does the source give for YAGNLHQSGVHGALLALDENFDHN here?
The protein stability index was 2.13.

With YAGNLHSSGVHGALLALDENFDHN as the variant, how does the protein stability index read?
Its protein stability index is 2.58.

For YAGNLHWSGVHGALLALDENFDHN, which protein stability index is on record?
The protein stability index was 2.91.

With YAGNLHISGVHGALLALDENFDHN as the variant, how does the protein stability index read?
Its protein stability index is 1.54.

For YAGNLHVSGVHGALLALDENFDHN, which protein stability index is on record?
Its protein stability index is 1.93.

Which protein stability index does the source give for YAGNLHNSGVHGALLALDENFDHN here?
Its protein stability index is 1.81.

Which protein stability index does the source give for YAGNLHESGCHGALLALDENFDHN here?
The protein stability index was 2.06.

Which protein stability index does the source give for YAGNLHESGHHGALLALDENFDHN here?
The protein stability index was 2.7.

Which protein stability index does the source give for YAGNLHESGYHGALLALDENFDHN here?
The protein stability index was 2.31.

Which protein stability index does the source give for YAGNLHESGRHGALLALDENFDHN here?
The protein stability index was 2.79.

With YAGNLHESGFHGALLALDENFDHN as the variant, how does the protein stability index read?
Its protein stability index is 2.25.

With YAGNLHESGIHGALLALDENFDHN as the variant, how does the protein stability index read?
The protein stability index was 2.23.

With YAGNLHESGDHGALLALDENFDHN as the variant, how does the protein stability index read?
The protein stability index was 4.04.

Which protein stability index does the source give for YAGNLHESGMHGALLALDENFDHN here?
The protein stability index was 1.79.

With YAGNLHESGNHGALLALDENFDHN as the variant, how does the protein stability index read?
Its protein stability index is 3.23.

For YAGNLHESGKHGALLALDENFDHN, which protein stability index is on record?
Its protein stability index is 2.97.

For YAGNLHESGTHGALLALDENFDHN, which protein stability index is on record?
Its protein stability index is 3.09.

For YAGNLHESGWHGALLALDENFDHN, which protein stability index is on record?
The protein stability index was 2.73.

For YAGNLHESGAHGALLALDENFDHN, which protein stability index is on record?
Its protein stability index is 3.11.

With YAGNLHESGGHGALLALDENFDHN as the variant, how does the protein stability index read?
The protein stability index was 2.8.

With YAGNLHESGQHGALLALDENFDHN as the variant, how does the protein stability index read?
The protein stability index was 3.19.

With YAGNLHESGSHGALLALDENFDHN as the variant, how does the protein stability index read?
The protein stability index was 3.09.

For YAGNLHESGEHGALLALDENFDHN, which protein stability index is on record?
The protein stability index was 4.11.

For YAGNLHESGPHGALLALDENFDHN, which protein stability index is on record?
Its protein stability index is 2.94.

For YAGNLHESGLHGALLALDENFDHN, which protein stability index is on record?
Its protein stability index is 2.35.

Which protein stability index does the source give for YAPNLHESGVHGALLALDENFDHN here?
The protein stability index was 2.29.

For YAKNLHESGVHGALLALDENFDHN, which protein stability index is on record?
The protein stability index was 3.42.

Which protein stability index does the source give for YANNLHESGVHGALLALDENFDHN here?
Its protein stability index is 2.98.

Which protein stability index does the source give for YAMNLHESGVHGALLALDENFDHN here?
The protein stability index was 3.55.

For YAVNLHESGVHGALLALDENFDHN, which protein stability index is on record?
The protein stability index was 3.11.

Which protein stability index does the source give for YAYNLHESGVHGALLALDENFDHN here?
The protein stability index was 1.99.

With YACNLHESGVHGALLALDENFDHN as the variant, how does the protein stability index read?
Its protein stability index is 2.64.

For YALNLHESGVHGALLALDENFDHN, which protein stability index is on record?
The protein stability index was 3.73.

For YATNLHESGVHGALLALDENFDHN, which protein stability index is on record?
Its protein stability index is 2.69.

Which protein stability index does the source give for YAINLHESGVHGALLALDENFDHN here?
The protein stability index was 2.81.

For YAENLHESGVHGALLALDENFDHN, which protein stability index is on record?
Its protein stability index is 4.67.

Which protein stability index does the source give for YAQNLHESGVHGALLALDENFDHN here?
Its protein stability index is 3.12.

Which protein stability index does the source give for YASNLHESGVHGALLALDENFDHN here?
Its protein stability index is 2.95.

For YAANLHESGVHGALLALDENFDHN, which protein stability index is on record?
The protein stability index was 2.79.

For YAFNLHESGVHGALLALDENFDHN, which protein stability index is on record?
Its protein stability index is 2.29.

With YAHNLHESGVHGALLALDENFDHN as the variant, how does the protein stability index read?
Its protein stability index is 2.92.

For YAWNLHESGVHGALLALDENFDHN, which protein stability index is on record?
The protein stability index was 2.56.

Which protein stability index does the source give for YARNLHESGVHGALLALDENFDHN here?
Its protein stability index is 2.72.

For YADNLHESGVHGALLALDENFDHN, which protein stability index is on record?
The protein stability index was 3.83.

Which protein stability index does the source give for YAGNSHESGVHGALLALDENFDHN here?
The protein stability index was 2.72.

With YAGNIHESGVHGALLALDENFDHN as the variant, how does the protein stability index read?
The protein stability index was 1.94.

Which protein stability index does the source give for YAGNCHESGVHGALLALDENFDHN here?
Its protein stability index is 2.58.

With YAGNRHESGVHGALLALDENFDHN as the variant, how does the protein stability index read?
The protein stability index was 3.11.

For YAGNFHESGVHGALLALDENFDHN, which protein stability index is on record?
The protein stability index was 2.02.

With YAGNKHESGVHGALLALDENFDHN as the variant, how does the protein stability index read?
Its protein stability index is 2.86.

For YAGNYHESGVHGALLALDENFDHN, which protein stability index is on record?
The protein stability index was 1.82.

With YAGNWHESGVHGALLALDENFDHN as the variant, how does the protein stability index read?
The protein stability index was 3.46.

Which protein stability index does the source give for YAGNNHESGVHGALLALDENFDHN here?
The protein stability index was 2.96.

Which protein stability index does the source give for YAGNEHESGVHGALLALDENFDHN here?
Its protein stability index is 4.34.

For YAGNGHESGVHGALLALDENFDHN, which protein stability index is on record?
Its protein stability index is 2.21.

For YAGNHHESGVHGALLALDENFDHN, which protein stability index is on record?
Its protein stability index is 2.38.

For YAGNTHESGVHGALLALDENFDHN, which protein stability index is on record?
The protein stability index was 2.84.

With YAGNDHESGVHGALLALDENFDHN as the variant, how does the protein stability index read?
Its protein stability index is 3.71.

For YAGNAHESGVHGALLALDENFDHN, which protein stability index is on record?
Its protein stability index is 2.56.

With YAGNQHESGVHGALLALDENFDHN as the variant, how does the protein stability index read?
The protein stability index was 2.94.

For YAGNVHESGVHGALLALDENFDHN, which protein stability index is on record?
Its protein stability index is 2.12.

With YAGNMHESGVHGALLALDENFDHN as the variant, how does the protein stability index read?
The protein stability index was 2.23.

For YAGNPHESGVHGALLALDENFDHN, which protein stability index is on record?
The protein stability index was 2.94.

With YAGNLHESLVHGALLALDENFDHN as the variant, how does the protein stability index read?
The protein stability index was 2.1.

Which protein stability index does the source give for YAGNLHESNVHGALLALDENFDHN here?
The protein stability index was 3.1.

With YAGNLHESWVHGALLALDENFDHN as the variant, how does the protein stability index read?
Its protein stability index is 2.94.

For YAGNLHESQVHGALLALDENFDHN, which protein stability index is on record?
The protein stability index was 2.82.

Which protein stability index does the source give for YAGNLHESHVHGALLALDENFDHN here?
Its protein stability index is 2.65.

Which protein stability index does the source give for YAGNLHESYVHGALLALDENFDHN here?
The protein stability index was 2.34.

For YAGNLHESDVHGALLALDENFDHN, which protein stability index is on record?
Its protein stability index is 3.69.

For YAGNLHESTVHGALLALDENFDHN, which protein stability index is on record?
Its protein stability index is 2.9.

Which protein stability index does the source give for YAGNLHESVVHGALLALDENFDHN here?
The protein stability index was 2.98.

For YAGNLHESAVHGALLALDENFDHN, which protein stability index is on record?
Its protein stability index is 2.46.

Which protein stability index does the source give for YAGNLHESRVHGALLALDENFDHN here?
The protein stability index was 2.31.

For YAGNLHESMVHGALLALDENFDHN, which protein stability index is on record?
The protein stability index was 3.23.

For YAGNLHESPVHGALLALDENFDHN, which protein stability index is on record?
Its protein stability index is 3.59.

With YAGNLHESKVHGALLALDENFDHN as the variant, how does the protein stability index read?
Its protein stability index is 2.68.

With YAGNLHESFVHGALLALDENFDHN as the variant, how does the protein stability index read?
The protein stability index was 1.83.

For YAGNLHESIVHGALLALDENFDHN, which protein stability index is on record?
The protein stability index was 1.49.

For YAGNLHESSVHGALLALDENFDHN, which protein stability index is on record?
The protein stability index was 2.63.

With YAGNLHESEVHGALLALDENFDHN as the variant, how does the protein stability index read?
The protein stability index was 3.49.
